The target of assay [1] is T1, GST protein alone (UniProt P08515 1-218 = GST).
T1 construct: Control in the GST pull-down; also called GST alone
Description: GST pull-down from protein extracts of cells overexpressing IEBP, SDS-PAGE and blot with anti-hsp27 antibody.
Description: Postnuclear extracts were applied to the GST beads and incubated for 1 hour. The loaded GST-extract mixture was then washed repetitively (5×) with PBS buffer containing 5 mM DTT and 1 mM PMSF and resuspended in 2×SDS sample buffer and boiled for 5 minutes. Denatured proteins were resolved on 4-20% SDS-PAGE gel, transferred to a nitrocellulose membrane, probed with appropriate antibody (obtained from Santa Cruz) and visualized by ECL.
Protein extracts of cells overexpressing IEBP were incubated with a GST-receptor ligand-binding domain fusion protein representing the ER. Control assays were employed using a glucocorticoid receptor (GR)-fusion protein or GST protein alone.

Assay [2] has as its target T2, recombinant human ERα (human, UniProt P03372 1-595).
T2 construct: also called estrogen receptor alpha
T2 sequence (looked up): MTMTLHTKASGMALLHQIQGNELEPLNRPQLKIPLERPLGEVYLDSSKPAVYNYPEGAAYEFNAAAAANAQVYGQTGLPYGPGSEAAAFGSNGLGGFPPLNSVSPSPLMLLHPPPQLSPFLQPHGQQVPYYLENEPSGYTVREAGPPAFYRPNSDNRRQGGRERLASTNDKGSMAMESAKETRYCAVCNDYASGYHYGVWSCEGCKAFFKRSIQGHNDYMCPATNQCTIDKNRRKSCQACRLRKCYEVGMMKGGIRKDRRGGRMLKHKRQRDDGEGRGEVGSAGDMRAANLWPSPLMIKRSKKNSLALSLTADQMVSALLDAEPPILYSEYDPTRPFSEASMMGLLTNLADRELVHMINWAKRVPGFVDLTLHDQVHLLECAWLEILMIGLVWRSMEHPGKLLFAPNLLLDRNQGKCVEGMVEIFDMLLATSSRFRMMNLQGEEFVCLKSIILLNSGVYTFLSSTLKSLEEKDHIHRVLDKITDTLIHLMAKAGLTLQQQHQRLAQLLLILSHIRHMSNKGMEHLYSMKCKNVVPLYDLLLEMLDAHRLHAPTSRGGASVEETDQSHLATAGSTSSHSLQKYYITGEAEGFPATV
Description: EMSA with consensus ERE probe, recombinant human ERα and extract of IEBP transfectant; supershift with anti-hsp27 antibody. Background: In EMSA bound probe runs differently from free probe, usually more slowly.

The source of these data is patent US20050009137A1 (CEDARS SINAI MEDICAL CENTER, published 2005).

T1 sequence (P08515 whole entry): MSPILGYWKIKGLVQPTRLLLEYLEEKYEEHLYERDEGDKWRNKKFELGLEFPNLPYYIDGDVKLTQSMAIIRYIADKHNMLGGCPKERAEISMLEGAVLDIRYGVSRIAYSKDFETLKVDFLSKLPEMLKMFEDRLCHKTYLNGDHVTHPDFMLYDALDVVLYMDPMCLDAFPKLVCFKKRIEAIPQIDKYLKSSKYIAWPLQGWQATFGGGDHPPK

B1: intracellular estradiol binding protein (IEBP) of New World primate B95-8 cells (other)
chain: MTERHVPFSLLQSPSWDPFRDWYPHSHLFDQAFGMPRLPEEWSQWFGTSSWPGYVRPLPPTTVEGPAVAAPAYSRALNQQLSSGVSETADRWRVSLDVNHFAPEELTVKTKDGVVEITGKHEERQDEHGFISRCFTRKYSLPPGVDPTQVSPSLSPEGTLTVDAPMSKPATQSNEITIPVTFESRAQLGGPEAAKSDRSAAK
notes: also called hsp27-like IEBP; hsp 27-related IEBP
As to B1, the values for the binding result in assay [1] and in assay [2] were “no binding” and “binds”, respectively.
